Measurements from the supplement of paper PMC12042874.
± gives the uncertainty stated by the source.

Experiment: amyloid nucleation score (Sup35N fusion, yeast selection) (log enrichment); library NNK3; higher = more nucleation; inactive = no reads after selection
In short: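 For the nucleation score, DiMSum gave the log enrichment of output over input reads, centred on the mode score of non-aggregating sequences. Psi-negative yeast expressing Sup35N fused to peptides of 20 random codons were induced with 100 μM copper sulfate for 24 hours and grown 7 days at 30°C on medium lacking adenine and uracil. Input and output plasmid inserts were Illumina-sequenced, and sequences with under 100 input reads were excluded.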
With IVGYERATFVLRSYRFEKVS the amyloid nucleation score was “inactive”.
GSSVELVIQSS gave an amyloid nucleation score of 0.415 ± 0.28.
For CLGVSNTYHWSYRRIFRYRF, the amyloid nucleation score was “inactive”.
Substance RIHSYAYPCQFFRLDYGGGQ has an amyloid nucleation score of 0.703 ± 0.13.
For VYISESVQRMYSLCTFSSLD, the amyloid nucleation score was 1.18 ± 0.085.
In the case of LFYFKRFWYVLLLANLLDM, the amyloid nucleation score is reported as “inactive”.
For GCWNVMRRCVLLILPESYLV, the amyloid nucleation score was “inactive”.
For ENNVRTVHVISWAIFLSTYF, the amyloid nucleation score was “inactive”.
With NDGLAQSNIEIKDYRCRQNY the amyloid nucleation score was “inactive”.
With YLYGGVLGVSSDEGLADGKD the amyloid nucleation score was “inactive”.
In the case of FEYNRQYTRLSSVRVRIRGS, the amyloid nucleation score is reported as “inactive”.
With LFDLVYRWTWNED the amyloid nucleation score was -0.592 ± 0.76.
In the case of SFSLKPTDYIFIIVRSRRNP, the amyloid nucleation score is reported as “inactive”.
With MLCRPTGRGLDGQCERLTVR the amyloid nucleation score was “inactive”.
In the case of YGLIRYPLFIFSALVTT, the amyloid nucleation score is reported as “inactive”.
In the case of RQFVIFYYSLIGHVNSWLRP, the amyloid nucleation score is reported as “inactive”.
In the case of LVPFLVDIHVGWDISLKVVR, the amyloid nucleation score is reported as “inactive”.
For DTVKKVYSYYMTLNYVEPLP, the amyloid nucleation score was “inactive”.
For MCFNYCGVWASYLNRSVSFI, the amyloid nucleation score was “inactive”.
In the case of TIFVTTR, the amyloid nucleation score is reported as “inactive”.
With RKRAGVMGTLSN the amyloid nucleation score was “inactive”.
For NHCYLLL, the amyloid nucleation score was “inactive”.
For KSWVRGH, the amyloid nucleation score was “inactive”.
For MCLVFKTEIRGLKAFCMCSF, the amyloid nucleation score was “inactive”.
YNRANYAKRVCTSSVNVETE showed an amyloid nucleation score of 0.294 ± 0.47.
For WDKSLSVRTQVCHNRDS, the amyloid nucleation score was “inactive”.
For RRPSQRLLGHIKVLWRNTTI, the amyloid nucleation score was “inactive”.
With WSCASSCFY the amyloid nucleation score was “inactive”.
For HWGRDFLGFVTAFDGCVSQL, the amyloid nucleation score was “inactive”.
Substance DFDFQIYC has an amyloid nucleation score of 0.507 ± 0.25.
With LNTLGKNNIKRSILRRSLYY the amyloid nucleation score was “inactive”.
With MVLRVLNYFINFCATVLAGS the amyloid nucleation score was “inactive”.
In the case of SLNEHNAGGIVTLHWQSIES, the amyloid nucleation score is reported as “inactive”.
In the case of ELYSDG, the amyloid nucleation score is reported as “inactive”.
With LLEQMQGFRLIQSGVHNTLM the amyloid nucleation score was “inactive”.
GCIDEDCGVLIIKFYNIRRY showed an amyloid nucleation score of 0.118 ± 0.59.
In the case of SGLSDPPPLLE, the amyloid nucleation score is reported as “inactive”.
Work on DYTCACLRVRI yielded an amyloid nucleation score of -0.047 ± 0.98.
In the case of MVFEKGFSTNNRHGGHLDEQ, the amyloid nucleation score is reported as “inactive”.
NIWESAVPWVTDALVYKNRV showed an amyloid nucleation score of -0.323 ± 0.96.
In the case of YTYWG, the amyloid nucleation score is reported as “inactive”.
For CPFHIIHKQSLRKMMSTWEA, the amyloid nucleation score was “inactive”.
With MRSNMFSRAGNYGQSIKELT the amyloid nucleation score was “inactive”.
In the case of SHYFK, the amyloid nucleation score is reported as “inactive”.
In the case of NLAFTNVKVWVWSFSLLLYC, the amyloid nucleation score is reported as “inactive”.
With ECYVR the amyloid nucleation score was “inactive”.
In the case of AIINSVREPWAPAMAHTNNA, the amyloid nucleation score is reported as 0.586 ± 0.21.
For SYVFTR, the amyloid nucleation score was “inactive”.
In the case of CTDIICMIRFVVLDMRGAN, the amyloid nucleation score is reported as 0.981 ± 0.12.
For DITAG, the amyloid nucleation score was “inactive”.
For CDYIKAKSVTDVCGNP, the amyloid nucleation score was “inactive”.
With KWWCHLWVIGVGFALGLYTG the amyloid nucleation score was “inactive”.
With GLKKWLFD the amyloid nucleation score was “inactive”.
In the case of CIIRVYCFWFTDGDFYVLYR, the amyloid nucleation score is reported as “inactive”.
With LDVKQSSRSLREAVDVFNNH the amyloid nucleation score was “inactive”.
In the case of GRDLLLRHTMSRGCQILLE, the amyloid nucleation score is reported as “inactive”.
Work on GLNGIDLKLSVAGFVVFLGR yielded an amyloid nucleation score of 1.48 ± 0.14.
For VSDCESMAN, the amyloid nucleation score was “inactive”.
For VVQSGRAFRCYRCSLEVQTE, the amyloid nucleation score was “inactive”.
In the case of QLLGNGP, the amyloid nucleation score is reported as “inactive”.
With ICLAFRPECCCGIWTDKRIG the amyloid nucleation score was 1.74 ± 0.088.
In the case of YIFFWKRTFLP, the amyloid nucleation score is reported as “inactive”.
In the case of QDLGECN, the amyloid nucleation score is reported as “inactive”.
With FLVDVYSCVCSILLWV the amyloid nucleation score was “inactive”.
For DKGFINCVSGSGDHVTCGGS, the amyloid nucleation score was “inactive”.
For YICCDIRTRALRIRIRCVLM, the amyloid nucleation score was -0.411 ± 0.75.
With SWHDINVAFADSFIDSKETC the amyloid nucleation score was “inactive”.
Work on NRGSGRSMYMRSSFYSESGS yielded an amyloid nucleation score of 0.522 ± 0.28.
In the case of TNVLCRSTKNVFYTKGL, the amyloid nucleation score is reported as 0.368 ± 0.17.
For KLQNCVKTDLHA, the amyloid nucleation score was “inactive”.
For VNLPFNDKYHLVFIGMA, the amyloid nucleation score was “inactive”.
With TEISSSMSFVHNFIYVCDR the amyloid nucleation score was “inactive”.
For IYLMVFNCMFEVTFRLSVES, the amyloid nucleation score was “inactive”.
In the case of VDSILAMGRGAYVID, the amyloid nucleation score is reported as “inactive”.
With ELMHFLAFVGDAMYVLSGII the amyloid nucleation score was “inactive”.
With SLIWPSYDYLDNFLGYYSLK the amyloid nucleation score was “inactive”.
For LLLSSILRYS, the amyloid nucleation score was “inactive”.
For SDIHMMRCGVWLKNLMFMRK, the amyloid nucleation score was “inactive”.
In the case of TSETRPIGDA, the amyloid nucleation score is reported as “inactive”.
With VLMMPPAFRRQSFNFRCVSQ the amyloid nucleation score was “inactive”.
With TVASYVNCKRFVLWNYWLFS the amyloid nucleation score was “inactive”.
RYGTVDCIYCFMDLGVRDTG showed an amyloid nucleation score of 2.46 ± 0.081.
With MSTLEMHYGPSFSCLYNMQD the amyloid nucleation score was 1.89 ± 0.065.
With IVFMRLRMRVICPLCSVRLS the amyloid nucleation score was 0.385 ± 0.2.
For YSGTFDFLIKA, the amyloid nucleation score was “inactive”.
In the case of VMRFYQPSTASLYGSLASPR, the amyloid nucleation score is reported as “inactive”.
For FSAKDFSNVYRSPSMF, the amyloid nucleation score was “inactive”.
In the case of HYWYE, the amyloid nucleation score is reported as “inactive”.
Substance YFKWVFKSYKPV has an amyloid nucleation score of 1.35 ± 0.12.
For CCKSCSTLFLNFSLFNDLLT, the amyloid nucleation score was “inactive”.
For VLYCGHCFVFTRCSGWVQLG, the amyloid nucleation score was “inactive”.
In the case of KNMHNPDRY, the amyloid nucleation score is reported as “inactive”.
For LNFMWRGMY, the amyloid nucleation score was -0.135 ± 0.62.
With DIDTLYTTIEKCFEDIT the amyloid nucleation score was “inactive”.
In the case of VAPWKKPLPMKVTSAQFPNR, the amyloid nucleation score is reported as “inactive”.
With LAPFLFCRNNF the amyloid nucleation score was “inactive”.
TEFPQEEPGTSLAQFP gave an amyloid nucleation score of -0.69 ± 1.1.
With DGGYFGNSWFIHGDSLFQMG the amyloid nucleation score was “inactive”.
In the case of MRGINRIDLLPG, the amyloid nucleation score is reported as “inactive”.
For LWFCLFPPWITSCPFRLCRA, the amyloid nucleation score was “inactive”.
Substance LLVTDYGFELTVQLWNKRSL has an amyloid nucleation score of -0.155 ± 0.33.
In the case of RVPIYVHKI, the amyloid nucleation score is reported as “inactive”.
PYFRMVNYYFFMTVSGRFNF gave an amyloid nucleation score of -0.507 ± 1.
For LCLSSCWYTRGH, the amyloid nucleation score was “inactive”.
With SGWTTQVRNKDGWASQLVSE the amyloid nucleation score was “inactive”.
With FKEWVFCMYECE the amyloid nucleation score was “inactive”.
With SWDVGGLYCKINGPIMLSLD the amyloid nucleation score was “inactive”.
In the case of NLRKKWFWAYNPSYETSPLV, the amyloid nucleation score is reported as “inactive”.
With IKLARSAYQLSSVNMRVKVI the amyloid nucleation score was “inactive”.
With VEPYRVLYRNGR the amyloid nucleation score was “inactive”.
With LSRMTRESKPQEISAQARLD the amyloid nucleation score was 1.14 ± 0.13.
For INSRKSHGLSEPSHYQT, the amyloid nucleation score was “inactive”.
For RQADMYRYLFWGRWTVWCSW, the amyloid nucleation score was “inactive”.
With YYDCIALFNSKQGSYLHYWY the amyloid nucleation score was “inactive”.
For PVLWPLFKYVCFLTW, the amyloid nucleation score was “inactive”.
For THSVIFRVRYHLSYNAIRIF, the amyloid nucleation score was “inactive”.
In the case of TVHAYLFCGTAVMTVRSSVV, the amyloid nucleation score is reported as “inactive”.
With DFSNILLGTNQNNAVSAGSG the amyloid nucleation score was “inactive”.
With SVDDTLSVNGSSRSCGRGCR the amyloid nucleation score was -1.02 ± 1.5.
In the case of VNPISWGHVIVTYQN, the amyloid nucleation score is reported as “inactive”.
For RENSKFFLIRC, the amyloid nucleation score was “inactive”.
For LMLLIFAWFQILTVRIRLFR, the amyloid nucleation score was “inactive”.
Work on VSVLMGAWDLMWMPGKS yielded an amyloid nucleation score of 1.08 ± 0.14.
With TLSAEGVRRLFTCACSYHEG the amyloid nucleation score was 0.532 ± 0.47.
RVFGLMYSQREMCTWSVRNR showed an amyloid nucleation score of 0.446 ± 0.13.
SRCSSGRLCWRFASHSRGTS showed an amyloid nucleation score of -0.826 ± 1.4.
With RLGTM the amyloid nucleation score was “inactive”.
With RFLDRTLIGYVCGKRRSPSS the amyloid nucleation score was “inactive”.
TYFILSDCQASNIFSPMSDE gave an amyloid nucleation score of 0.478 ± 0.14.
With LIRYPGRSEDTVRFWRERMG the amyloid nucleation score was “inactive”.
For TFCLSYFHLL, the amyloid nucleation score was “inactive”.
For VYGLVRLALSAINDYEDYNL, the amyloid nucleation score was “inactive”.
With IFIMKARSKFPRVPFFQEFP the amyloid nucleation score was 1.23 ± 0.13.
For MFYMIFIVYQSWLKNASYLC, the amyloid nucleation score was “inactive”.
For RNNMKTCNVMCIFSNECHCR, the amyloid nucleation score was 2.85 ± 0.055.
In the case of LFNTRERRYMEWPTAWRLRR, the amyloid nucleation score is reported as “inactive”.
With CRRVDFGSLSRFMGSGFNVD the amyloid nucleation score was “inactive”.
For LLSETAHLFVFT, the amyloid nucleation score was “inactive”.
With LANTSRTGIFMDSNTDSRN the amyloid nucleation score was “inactive”.
For HWCRQNNSIFMRS, the amyloid nucleation score was “inactive”.
In the case of YRPAALSYQTRVCGTYWNDR, the amyloid nucleation score is reported as “inactive”.
In the case of TGQYMYKWSGLRWSYGGTFA, the amyloid nucleation score is reported as “inactive”.
For MYYSSYR, the amyloid nucleation score was “inactive”.
For VFLSIMSSFEWALYLL, the amyloid nucleation score was “inactive”.
In the case of TLSSLPVPL, the amyloid nucleation score is reported as “inactive”.
For LLFSLHCCCKSTYFFKSFLN, the amyloid nucleation score was “inactive”.
FEETIINFCRYLFMMFTGVV gave an amyloid nucleation score of 1.87 ± 0.1.
With SQCFIY the amyloid nucleation score was -0.514 ± 0.78.
In the case of EYIAFISTIPDMSLFSDVLF, the amyloid nucleation score is reported as 0.653 ± 0.11.
For SMGVFAKRRKGRWNTYSIKA, the amyloid nucleation score was “inactive”.
For FTVSFRYSLCCRDGDGESEC, the amyloid nucleation score was 1.97 ± 0.087.
For YCMWLPFMVNFH, the amyloid nucleation score was 2.58 ± 0.057.
For SMYVYPFELVSVDGRLVRTA, the amyloid nucleation score was “inactive”.
For INWCSVTDRCHKGMCLKSAG, the amyloid nucleation score was “inactive”.
For DEKIGGTVKYGVVQAYV, the amyloid nucleation score was “inactive”.
For FWFLLWKRKDTLWAFR, the amyloid nucleation score was “inactive”.
In the case of CPVRGPKVVIQCMMLSILTV, the amyloid nucleation score is reported as “inactive”.
With IYVQNSTANKR the amyloid nucleation score was “inactive”.
In the case of VCFDSVAMDNHDYPCVTRYM, the amyloid nucleation score is reported as “inactive”.
